PMC2699888 (Oncogene, 2006)
Ends that are not written are not given here. * marks the point of attachment. Biotin = O=C1N[C@H]2[C@H](CS[C@H]2CCCCC(=O)*)N1

Target: purified human PCNA (human, UniProt P12004 1-261)
Test: ELISA

Sequence of purified human PCNA (P12004 whole entry): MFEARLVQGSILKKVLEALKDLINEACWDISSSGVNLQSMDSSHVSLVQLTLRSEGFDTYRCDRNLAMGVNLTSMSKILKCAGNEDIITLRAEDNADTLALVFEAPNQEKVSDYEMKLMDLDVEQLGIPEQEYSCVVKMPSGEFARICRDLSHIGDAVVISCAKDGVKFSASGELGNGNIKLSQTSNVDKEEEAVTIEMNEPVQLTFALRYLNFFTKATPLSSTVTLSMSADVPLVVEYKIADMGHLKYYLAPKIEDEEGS

Binder | binding result
Biotin-SGSGDPLWCQSAVFLIRMWLRSRN [pep103, biotinylated synthetic peptide] | binds
Biotin-SGSGKLFNLHINSAVLQKKITDYF [pogo, biotinylated peptide derived from the Drosophila Pogo transposase] | binds
Biotin-SGSGDPDCGCSRRGCVLRMIRRRN (cysteine pairing not given here) [pep102, biotinylated synthetic peptide] | binds
